Experimental data as given in the DeepSol protein solubility set.

Test: soluble on expression in E. coli; label from the status in PepcDB or PDB records

| Sequence | soluble on expression in E. coli |
| --- | --- |
| SLSVVAPAVYVGTWHKYNCGSIAGRWFDLTTFDDERDFFAACRALHQDEADPELMFQDYEGFPGNMASECHINWAWVEGFRQARDEGCEEAYRLWVEDTGETDFDTFRDAWWGEADSEEAFAVEFASDTGLLADVPETVALYFDYEAYARDLFLDSFTFIDGHVFRR | soluble |
| SLTRNNELIAVGKGSSLKRLPVFGMEPRILYNPLQGQKCIVQTTSWSQCSKTCGTGISTRVTNDNPECRLVKETRICEVRPCGQPVYSSLKKGKKCSKTKKSPEPVRFTYAGCLSVKKYRPKYCGSCVDGRCCTPQLTRTVKMRFRCEDGETFSKNVMMIQSCKCNYNCPHANEAAFPFYRLFNDIHKFRDEG | not soluble |
| SLVSSSKITRAREMVTKTEEKQLNQLEIQVDNGGGGTWEYLCLVRNLKVRRSEKVLKHGSSILNDQKKRSALGPDEWTLNEQVAIAAMDCQCLGVAQSCIKALQTKFPGSKRVGRLEALLLEAKGLWGEAEEAYASLLEDNPLDQAIHKRRVAISKALGKPSIAIELLNKYLELFMADHDAWRELAELYLSLQMYKQAAFCYEELILSQPTVPLYHLAYAEVLYTIGGVENIISARKYYAATVDLTGGKNTRALLGICLCASAIAQLSKGRNKEDKDATAAPELHSLAAAAVEKEYKQKAPDKLQLISSALRILKT | soluble |
| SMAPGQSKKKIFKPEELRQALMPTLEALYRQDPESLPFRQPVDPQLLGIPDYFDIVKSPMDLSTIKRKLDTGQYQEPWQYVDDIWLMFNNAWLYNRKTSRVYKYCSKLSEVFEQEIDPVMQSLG | soluble |
| SMEVFQNHFEPGVYVCAKCGYELFSSRSKYAHSSPWPAFTETIHADSVAKRPEHNRSEALKVSCGKCGNGLGHEFLNDGPKPGQSRFSIFSSSLKFVPKGKETSA | soluble |
| SMFKYEEIVLERGNSGLGFSIAGGIDNPHVPDDPGIFITKIIPGGAAAMDGRLGVNDCVLRVNEVDVSEVVHSRAVEALKEAGPVVRLVVRRRQPPPEETSV | soluble |
| SMKQDSRFPNLFILDHPLIQHKLTHMRDKDTSTRTFRELLREITLLMGYEITRNLPITTKRVETPLVEIDAPVIAGKKLAIVPVLRAGVGMSDGLLELIPSARVGHIGVYRADDHRPVEYLVRLPDLEDRIFILCDPMVATGYSAAHAIDVLKRRGVPGERLMFLALVAAPEGVQVFQDAHPDVKLYVASLDSHLDDHAYIVPGLGDAGDRLFGTKN | soluble |
| SMSRKRPPSDIHDSDGSSSSSHQSLKSTAKWAASLENLLEDPEGVKRFREFLKKEFSEENVLFWLACEDFKKMQDKTQMQEKAKEIYMTFLSSKASSQVNVEGQSRLNEKILEEPHPLMFQKLQDQIFNLMKYDSYSRFLKSDLFLKHKRTEE | soluble |
| SMVQSSGPMDVTSLTEELKKLAKQGWYWGPITRWEAEGKLANVPDGSFLVRDSSDDRYLLSLSFRSHGKTLHTRIEHSNGRFSFYEQPDVEGHTSIVDLIEHSIGDSENGAFCYSRSRLPGSATYPVRLTNPVSRFMQVRS | soluble |
| SMVSPREKQQTNSKGSSNFCVKNIKQAEFGRREIEIAEQDMSALISLRKRAQGEKPLAGAKIVGCTHITAQTAVLIETLCALGAQCRWSACNIYSTQNEVAAALAEAGVAVFAWKGESEDDFWWCIDRCVNMDGWQANMILDDGGDLTHWVYKKYPNVFKKIRGIVEESVTGVHRLYQLSKAGKLCVPAMNVNDSVTKQKFDNLYCCRESILDGLKRTTDVMFGGKQVVVCGYGEVGKGCCAALKALGAIVYITEIDPICALQACMDGFRVVKLNEVIRQVDVVITCTGNKNVVTREHLDRMKNSCIVCNMGHSNTEIDVTSLRTPELTWERVRSQVDHVIWPDGKRVVLLAEGRLLNLSCSTVPTFVLSITATTQALALIELYNAPEGRYKQDVYLLPKKMDEYVASLHLPSFDAHLTELADDQAKYLGLNKNGPFKPNYYRY | soluble |
| SNAGAPLKAVSAFAPPMKTQDFNLYTNEVHAKFDDYDLGMEYARQHNKPVMLDFTGYGCVNCRKMELAVWTDPKVSSIINNDYVLITLYVDNKTPLTEPVKIMENGTERTLRTVGDKWSYLQRVKFGANAQPFYVLIDNEGNPLNKSYAYDEDISKYINFLQTGLENYRKEK | soluble |
| SNAMAVETLYRSTRDLETTFVDRKLADAHDQMLELAELLTDVLIKNVPGLSEKHAEDASIYMAKNRAVFAAAFKNNATALSELSEPAESEG | soluble |
| SNAMDFHIRKATNSDAEAIQHVATTSWHHTYQDLIPSDVQDDFLKRFYNVETLHNRISATPFAVLEQADKVIGFANFIELEKGKSELAAFYLLPEVTQRGLGTELLEVGMTLFHVPLPMFVNVEKGNETAIHFYKAKGFVQVEEFTEDFYGYPLETIRFNLNH | soluble |
| SNAMILVPIDISDKEFTERIISHVESEARIDDAEVHFLTVIPSLPYYASLGMAYTAELPGMDELREGSETQLKEIAKKFSIPEDRMHFHVAEGSPKDKILALAKSLPADLVIIASHRPDITTYLLGSNAAAVVRHAECSVLVVR | soluble |
| SNAMIRFQPITTSDVQHYKFMEELLVESFPPEEYRELEHLREYTDRIGNFHNNIIFDDDLPIGFITYWDFDEFYYVEHFATNPALRNGGYGKRTLEHLCEFLKRPIVLEVERPVEEMAKRRINFYQRHGFTLWEKDYYQPPYKEGDDFLPMYLMVHGNLDAEKDYEGIRHKLHTIVYGVKE | soluble |
| SNAMKKGTVLNSEISSVISRLGHTDTLVVCDAGLPIPNSTARIDMALTQGVPSFMQVVDVVTREMQVEAAILATEIKQQNPQLHETLLTHLEQLQQHQGNTIKISYTTHEQFKKLTADSQAVIRSGECSPYANVILCAGVTF | soluble |
| SNAMLIIETLPLLRQHIRRLRQEGKRVALVPTMGNLHDGHMKLVDEAKARADVVIVSIFVNPMQFDRPDDLVRYPRTLQEDCEKLNKRKVDYVFAPAVEEIYPHGLEGQTYVDVPGLSTMLEGASRPGHFRGVSTIVSKLFNLIQPDIACFGEKDFQQLALIRKMVADMSYDIEIVGVPIIRAKDGLALSSRNAYLTAEQRKIAPGLYNVMNSIAEKLIAGNRELQEIIAIAEQELNEKGFRADDIQIRDADTLLELTETSKRAVILAAAWLGQARLIDNQSVTLAQ | soluble |
| SNAMSKITFKDIYIDGNKITEDSRKAIYLLPPQPLKYASNTWIYKTMPTMNQWLKDIEVQKKMHLNQSSYHLSFSFPANEKIDEVLLEKIRELGFQIGVLELYVIEAKALKELSRKRDVDIQLVSSNNINDYLHVYDAFARPFGDSYANMVKQHIYSSYNLDDIERLVAYVNHQPVGIVDIIMTDKTIEIDGFGVLEEFQHQGIGSEIQAYVGRMANERPVILVADGKDTAKDMYLRQGYVYQGFKYHILKENI | soluble |
| SNAQDVPVTQVMTPRPVVFRVDATMTINEFLDKHKDTPFSRPLVYSEQKDNIIGFVHRLELFKMQQSGSGQKQLGAVMRPIQVVLNNTALPKVFDQMMTHRLQLALVVDEYGTVLGLVTLEDIFEHLVGE | soluble |
| SNNWVVSGSLTVSGNPLLANDPHLSLTAPGIWLPIVISSPSYSLAGVTIPGVPLVVIGRNSHVAWGFTNVGSDFTDFYRYQWVDENRYFYKGRIFGVEKSSIEAYVWDPLARSYRVQEISVARTIHGPVIEWQGEKFAVSYTSARPTFEMIFLWLLNKASSVRDALSAQRYFYGPPQNMVVADSAGNIAYSPVGAYPERATLPTIETGYGPIVNTGFLPFDGSAGEGEWRGFKPYSSLPVLFNPPQGFVATANSKPFEDGCWDGLGWDYADRFRTERIYTLLQERSAEEPLDAGDMRDIQLDVEDLGLKTLVSLMVRVASGDGGHVLERYMDMLAEWAENPQMNVDDYKPTLALLASWYFARDFWESLYGSEEHWRFIKLEYAEKALKAYLRGEDWVFNYF | not soluble |
| SPIIPEAARALYYNDGMFEGDIKLRAGRQPARVGAAILGDEYLWSGGVIPYTFAGVSGADQSAILSGMQELEEKTCIRFVPRTTESDYVEIFTSGSGCWSYVGRISGAQQVSLQANGCVYHGTILHALMHAIGFYHEHTRMDRDNYVTINYQNVDPSMTSNFDIDTYSRYVGEDYQYYSIMHYGKYSFSIQWGVLETIVPLQNGIDLTDPYDKAHMLQTDANQINNLYTNECSLR | soluble |
| SPLPDTMFCAQQIHIPPELPDILKQFTKAAIRTQPADVLQWSAGYFSALSRGDPLPVKDRIEMPVATQKTDTGLTQGLLKVLHKQCSHKQYVELADLEKKWKNLCLPVEKLRTILELDPCEDKIEWIKFLALGCSSLGRTLNTAMKNVCEILTSDPEGGPARIPFETFAYVYQYLSGLDPELPAVETENYLTSLRLMSESRKNGMIGLSDFFVGKKII | soluble |
| SPSAEECGYSDRVRSITLGNSTITTQESANVVVGYGRWPEYLRDDEATAEDQPTQPDVATCRFYTLESVTWEKDSPGWWWKFPDALKDMGLFGQNMYYHYLGRAGYTIHVQCNASKFHQGCLLVVCVPEAEMGCSTVDGTVNEHGLSEGETAKKFSATGTNGTNTVQSIVTNAGMGVGVGNLTIFPHQWINLRTNNCATIVMPYINNVPMDNMFRHHNFTLMIIPFVPLNYSSDFSTYVPITVTVAPMCAEYNGLRLSTALQ | soluble |
| SPSDVLVIENKHLTKEWPSGGQMMVNNLTAKYTSDGRAVLQDLSFSVNAGQRVGLLGRTGAGKSTLLSALLRLLSTEGEIQIDGISWNSVSLQKWRKAFGVIPQKVFVFSGTFRKNLDPYEQWSDEEIWKVTEEVGLKSMIEQFPDKLNFVLVDGGYILSNGHKQLMCLARSILSKAKILLLDEPTAHLDPVTFQIIRKTLKHTFSNCTVILSEHRVEALLECQQFLVIEGCSVKQFDALQKLLTEASLFKQVFGHLDRAKLFTAHRRNSSKRKTRPKISALQEEAEEDLQETRL | soluble |
| SPSSPLRVAVVCSSNQNRSMEAHNILSKRGFSVRSFGTGTHVKLPGPAPDKPNVYDFKTTYDQMYNDLLRKDKELYTQNGILHMLDRNKRIKPRPERFQNCTDLFDLILTCEERVYDQVVEDLNSREQETCQPVHVVNVDIQDNHEEATLGAFLICELCQCVSLSSWVLLGLLIATYKNKIK | soluble |
| SQKPCKENEGKPKCSVPKREEKRPYGEFERQQTEGNFRQRLLQSLEEFKEDIDYRHFKDEEMTREGDEMERCLEEIRGLRKKFRALHSNHRHSRDRPYPI | soluble |
| SQYKNISEKIVHIIQQEFDTDLTLESIAGRLHYNPNYLSSIFRKEMKISFSEYLSSYRHHIAKNWLTETTMSVKEISEKLKYKNPQNFIRSFKKLEGITPGKYRELKNHS | soluble |
| SRRLRTPLQDLTRAATSLAAGNSRIRVPAGGAGPEVATLAHAFNTMADRLEHTEQVRRQMLSDLAHEMGTPLSVLTAYLDGLQDGVVDWNNANHTIMADQLTRLTRLMEDIDYVSRAQEHRIDLDLAEEGLGD | not soluble |
| SRVDKFSKSDIIVSPSILSANFSKLGEQVKAIEQAGCDWIHVDVMDGRFVPNITIGPLVVDSLRPITDLPLDVHLMIVEPDQRVPDFIKAGADIVSVHCEQSSTIHLHRTINQIKSLGAKAGVVLNPGTPLTAIEYVLDAVDLVLIMSVNPGFGGQSFIESQVKKISDLRKICAERGLNPWIEVDGGVGPKNAYKVIEAGANALVAGSAVFGAPDYAEAIKGIKTSKRPE | soluble |
| SRVFLDHNALPDTLKVTYDSFCSNGVTHRNQPRGDCDGVQINVPITFQVKVTATECIQEQSFVIRALGFTDIVTVQVLPQCECRCRDQSRDRSLCHGKGFLECGICRCDTGYIGKNCEHH | soluble |
